Measured values taken from paper PMC3264624.

Key:
Assay in all cases: FRET or BRET; FLIM-FRET, Cerulean (donor) and mOrange (acceptor) fusions co-expressed in N. benthamiana leaves, two days post infiltration; Cerulean fluorescence lifetime, multiphoton excitation at 810 nm
[1] = biological target: NFR1:Cerulean (Lotus japonicus) (UniProt Q70KR8)
[2] = biological target: LjSYMREM1C:mOrange (Lotus japonicus)
[3] = biological target: LjSYMREM1:mOrange (full length) (Lotus japonicus)

Chain of UniProt Q70KR8 (Q70KR8 entry or part of it): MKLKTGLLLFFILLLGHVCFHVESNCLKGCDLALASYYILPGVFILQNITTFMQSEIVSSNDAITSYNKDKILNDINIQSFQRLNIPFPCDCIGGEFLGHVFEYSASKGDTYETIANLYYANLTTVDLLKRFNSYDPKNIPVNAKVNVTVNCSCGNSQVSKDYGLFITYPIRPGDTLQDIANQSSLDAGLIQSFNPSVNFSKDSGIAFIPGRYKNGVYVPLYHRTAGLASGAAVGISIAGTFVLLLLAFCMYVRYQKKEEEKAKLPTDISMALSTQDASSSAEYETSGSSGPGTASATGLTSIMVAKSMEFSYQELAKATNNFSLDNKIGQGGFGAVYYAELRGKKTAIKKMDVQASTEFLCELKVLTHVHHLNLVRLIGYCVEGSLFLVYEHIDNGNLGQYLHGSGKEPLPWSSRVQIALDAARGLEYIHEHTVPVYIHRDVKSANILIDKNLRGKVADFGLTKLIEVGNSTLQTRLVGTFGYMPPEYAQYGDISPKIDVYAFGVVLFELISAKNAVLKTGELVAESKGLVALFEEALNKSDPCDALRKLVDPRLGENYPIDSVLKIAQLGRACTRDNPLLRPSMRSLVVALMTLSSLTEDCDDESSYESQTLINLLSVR

Substance: LjSYMREM1N:mOrange (domain or fragment)
- Cerulean fluorescence lifetime [1]: 2.09 ns
- FRET efficiency [1]: 4.1%

Substance: NFR1:Cerulean (from UniProt Q70KR8 1-621) (receptor)
- Cerulean fluorescence lifetime [2]: 1.97 ns
- FRET efficiency [2]: 9.6%
- Cerulean fluorescence lifetime [3]: 1.99 ns
- FRET efficiency [3]: 8.8%
